Drawing on paper PMC8795569, this text covers Kd for one molecule.

The test deals with HA-APP (full-length, APP695 spliced isoform), P05067. Description: ELISA.

B1: MDGA1-Fc (MDGA1 extracellular domains fused to human Fc) (Fc fusion)
chain: QGVYAPAQAQIVHAGQACVVKEDNISERVYTIRESDTLVLQCLVTGHPRPQVRWTKTAGSASDKFQETSVFNETLRIERIARTQGGRYYCKAENGVGVPAIKSIRVDVQYLDEPVLTVHQTVSDVRGNFYQEKTVFLRCTVSSNPPARFIWKRGSDTLSHSQDNGVDIYEPLYTQGETKVLKLKNLRPQDYASYTCQVSVRNVCGIPDKSITFQLTNTTAPPTLKLSVNETLVVNPGENVTVQCLLTGGDPLPQLHWSHGPGPLPLGALAQGGTLSIPSVQARDSGYYNCTATNNVGNPAKKTVNLLVRSLKNATFQITPDMIKESENIQLGQDLKLSCHVDAVPQEKVNYQWFKNGKPARTSKRLLVTRNDPELPAVTSSLELIDLHFSDYGTYLCVASFPGSPVPDLSVEVNISSETVPPTISVPKGRAVVTVREGSPAELQCEVRGKPRPPVLWSRVDKEAALLPSGLALEETPDGKLRVERVSREMSGTYRCQTARYNGFNVRAREAQVQLTVHFPPEVEPSSQDVRQALGRPVLLRCSLLRGSPQRIASAVWRFKGQLLPPPPVLPAAAAEGPDHAELRLDALTRDSSGNYECSVSNDVGSATCLFQVSAKAYSPEFYFDTPNPTRSHKLSKNYSYVLQWTQREPDAVDPVLNYRLSIRQLNQHNAMVKAIPVRRVEKGQLLEYTLTDLRVPHSYEIHLTPYTTFGAGDMASRVIHYTEPINSPSLSDNTCHFEDEKICGYTQDLTDNFDWTRQNALTQNPKRSPNTGPPTDISGTPEGYYMFIETSRPRELGDRARLVSPLYNASAKFYCVSFFYHMYGKHIGSLNLLVRSRNKGTLDTHAWSLSGNKGNVWQQAHVPINPSGPFQIIFEGVRGSGYLGDIAIDDVTLKKGECPRRQMDPNKVVVMPGS
modifications: not checked
The molecule B1 yielded a Kd of 84.7 nM.
